The values that follow come from publication PMC3779530 (Innate immunity, 2013).

Where two headings read alike, the source gives them in different places.

Assay [1] has as its target TLR4 ECD (Homo sapiens) (UniProt O00206). As to conditions: cited from earlier work.
Target sequence in this assay (O00206 24-631 D299G/T399I): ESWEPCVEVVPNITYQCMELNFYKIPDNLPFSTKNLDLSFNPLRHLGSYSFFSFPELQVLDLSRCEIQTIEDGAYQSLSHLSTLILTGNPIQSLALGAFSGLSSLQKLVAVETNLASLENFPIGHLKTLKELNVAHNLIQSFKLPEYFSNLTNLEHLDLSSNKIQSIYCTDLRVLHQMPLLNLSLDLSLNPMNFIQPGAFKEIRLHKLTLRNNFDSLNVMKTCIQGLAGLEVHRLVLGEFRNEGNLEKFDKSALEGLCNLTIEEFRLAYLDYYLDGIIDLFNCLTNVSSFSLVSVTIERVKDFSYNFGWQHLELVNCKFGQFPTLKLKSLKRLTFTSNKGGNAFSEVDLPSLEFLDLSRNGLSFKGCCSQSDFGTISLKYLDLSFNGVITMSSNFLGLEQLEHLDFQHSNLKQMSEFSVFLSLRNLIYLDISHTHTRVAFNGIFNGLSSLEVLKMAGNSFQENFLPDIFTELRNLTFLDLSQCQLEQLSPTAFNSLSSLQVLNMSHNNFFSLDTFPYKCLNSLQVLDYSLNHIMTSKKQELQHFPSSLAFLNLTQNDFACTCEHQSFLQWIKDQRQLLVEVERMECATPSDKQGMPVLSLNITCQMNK
For assay [2] the target is unchanged. The conditions noted are these: cited from earlier work. The source holds these as a separate data set.
Target sequence in this assay (O00206 24-631): as the sequence (O00206 24-631 D299G/T399I) above, with G276D, I376T counted along it
Assay [3] addresses FLAG-tagged TLR4 ectodomain-vlr-Fc protein (not stated | hagfish) (UniProt O00206). In words: radioligand binding.
Assay [4] deals with full-length wild-type TLR4 on transiently transfected HEK293T cells (human, UniProt O00206 24-839). In words: radioligand binding.
full-length wild-type TLR4 on transiently transfected HEK293T cells, sequence (O00206 24-839): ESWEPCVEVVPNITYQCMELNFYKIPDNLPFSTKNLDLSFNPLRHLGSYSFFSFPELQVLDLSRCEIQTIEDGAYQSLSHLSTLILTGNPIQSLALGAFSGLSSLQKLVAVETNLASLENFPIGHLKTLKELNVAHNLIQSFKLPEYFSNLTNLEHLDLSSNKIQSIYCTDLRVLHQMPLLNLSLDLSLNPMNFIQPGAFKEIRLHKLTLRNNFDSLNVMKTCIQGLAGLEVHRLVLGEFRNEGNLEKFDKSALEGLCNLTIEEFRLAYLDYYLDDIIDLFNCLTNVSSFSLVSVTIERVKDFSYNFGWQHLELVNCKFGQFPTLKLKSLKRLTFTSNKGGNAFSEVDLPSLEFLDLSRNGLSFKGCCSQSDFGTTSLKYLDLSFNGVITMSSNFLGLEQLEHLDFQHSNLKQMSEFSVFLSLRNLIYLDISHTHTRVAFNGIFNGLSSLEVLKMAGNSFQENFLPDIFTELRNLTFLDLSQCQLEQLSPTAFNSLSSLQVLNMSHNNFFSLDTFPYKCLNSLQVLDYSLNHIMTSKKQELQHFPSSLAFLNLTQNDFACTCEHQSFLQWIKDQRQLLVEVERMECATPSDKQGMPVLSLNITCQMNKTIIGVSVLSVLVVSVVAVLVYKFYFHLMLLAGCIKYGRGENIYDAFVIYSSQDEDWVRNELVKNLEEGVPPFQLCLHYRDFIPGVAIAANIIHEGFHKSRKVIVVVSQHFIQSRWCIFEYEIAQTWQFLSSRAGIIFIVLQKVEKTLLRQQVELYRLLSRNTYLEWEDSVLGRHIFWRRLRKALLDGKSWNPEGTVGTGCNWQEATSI

LOS·MD-2 (from UniProt Q9Y6Y9): the Kd with TLR4 ECD (Homo sapiens) [1] and in the assay with TLR4 ECD (Homo sapiens) [2] was 0.2 nM throughout.

B1: metabolically labeled LOS·MD-2 (monomeric complex of Neisseria meningitidis lipooligosaccharide and recombinant human His6-MD-2) (ligand)
chain: QKQYWVCNSSDASISYTYCDKMQYPISINVNPCIELKRSKGLLHIFYIPRRDLKQLYFNLYITVNTMNLPKRKEVICRGSDDDYSFCRALKGETVNTTISFSFKGIKFSKGKYKCVVEAISGSPEEMLFCLEFVILHQPNSN
As to B1, the equilibrium dissociation constant (Kd) in assay [3] is 0.117 nM; in assay [4], 0.367 ± 0.136 nM.
